# ± gives the uncertainty stated by the source.
# Assay: self-splicing fitness, log relative to wild type (ln ratio); higher = more splicing; Tetrahymena group I intron in knt gene, E. coli kanamycin selection, DiMSum; sequences stand for … in CUCUCU…GGAGGGAAAAGUUAUCAGGCAUGCACCUGGUAGCUAGUCUUUAAACCAAUAGAUUGCAUCGGUUUAAAAGGCAAGACCGUCAAAUUGCGGGAAAGGGGUCAACAGCCGUUCAGUACCAAGUCUCAGGGGAAACUUUGAGAUGGCCUUGCAAAGGGUAUGGUAAUAAGCUGACGGACAUGGUCCUAACCACGCAGCCAAGUCCUAAGUCAACAGAUCUUCUGUUGAUAUGGAUGCAGUUCACAGACUAAAUGUCGGUCGGGGAAGAUGUAUUCUUCUCAUAAGAUAUAGUCGGACCUCUCCUUAAUGGGAGCUAGCGGAUGAAGUGAUGCAACACUGGAGCCGCUGGGAACUAAUUUGUAUGCGAAAGUAUAUUGAUUAGUUUUGGAGUACUCGUGGUCG
# Summary of the method: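 Pooled colonies went to amplicon sequencing on an Illumina HiSeq 2500 after six replicate transformations. The plates were LB agar with 100 μg/mL carbenicillin, 50 μM IPTG and 0.2% rhamnose, with or without 25 μg/mL kanamycin, incubated overnight at 37°C or 30°C. The E. coli BL21(DE3) library had all eight P1ex-region intron nucleotides randomised, the intron placed in the knt kanamycin-resistance gene on pET-22b(+). DiMSum fitness is the error-weighted combination of replicate fold changes, kanamycin against none, normalised to wild type.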
Sequence,self-splicing fitness (ln) (30 °C),self-splicing fitness (ln) (37 °C)
CCCGAGCAAUAUUACGGGGC,-3.75 ± 0.19,-2.74 ± 0.17
AGGCAGCAAUAUUACGUCGG,-0.675 ± 0.08,-0.941 ± 0.09
ACUCAGCAAUAUUACGAACG,-0.623 ± 0.1,-0.492 ± 0.14
UUUGAGCAAUAUUACGUCAU,-3.88 ± 0.34,-1.64 ± 0.21
GGAAAGCAAUAUUACGGGGC,-3.54 ± 0.28,-0.864 ± 0.21
UGUGAGCAAUAUUACGAACC,-2.06 ± 0.24,-0.336 ± 0.27
CUAAAGCAAUAUUACGAUAU,-3.84 ± 0.19,-3.13 ± 0.18
CAAAAGCAAUAUUACGAUCC,-2.58 ± 0.22,-1.26 ± 0.24
AGGCAGCAAUAUUACGGACC,-0.728 ± 0.14,-0.53 ± 0.18
CUGCAGCAAUAUUACGGAUA,-3.58 ± 0.29,-2.69 ± 0.25
UGGAAGCAAUAUUACGUACG,-0.898 ± 0.11,0.202 ± 0.13
AAGAAGCAAUAUUACGGGUG,-1.65 ± 0.072,-1.12 ± 0.086
CGAGAGCAAUAUUACGUCUU,-3.66 ± 0.43,-1.39 ± 0.22
UGACAGCAAUAUUACGGAAA,-2.03 ± 0.12,-1.75 ± 0.14
AGGAAGCAAUAUUACGCAAU,-2.58 ± 0.25,-2 ± 0.21
GGGGAGCAAUAUUACGCCGG,,-0.928 ± 0.42
CAGUAGCAAUAUUACGCACA,-1.88 ± 0.14,-0.579 ± 0.18
AGCCAGCAAUAUUACGAGCU,-3.38 ± 0.21,-3 ± 0.35
GCCAAGCAAUAUUACGUCCU,-2.11 ± 0.11,-0.408 ± 0.12
AAACAGCAAUAUUACGCGUU,-3.11 ± 0.11,-1.1 ± 0.1
GGUUAGCAAUAUUACGGCUA,-0.605 ± 0.088,0.861 ± 0.13
AACGAGCAAUAUUACGUUCC,-3.09 ± 0.36,-2.41 ± 0.3
GUACAGCAAUAUUACGACUA,-1.16 ± 0.13,-0.637 ± 0.12
GCGCAGCAAUAUUACGUCAC,-4.04 ± 0.17,-1.65 ± 0.11
AAUCAGCAAUAUUACGCAAC,-1.32 ± 0.11,-0.666 ± 0.13
CAAAAGCAAUAUUACGCAUU,-3.45 ± 0.18,-3.29 ± 0.23

Sequence,self-splicing fitness (ln) (30 °C),self-splicing fitness (ln) (37 °C)
AGCCAGCAAUAUUACGACCC,-1.46 ± 0.34,-0.503 ± 0.24
GAUAAGCAAUAUUACGGGUA,-1.69 ± 0.14,-1.37 ± 0.17
UGGCAGCAAUAUUACGUCAA,-1.16 ± 0.099,-0.518 ± 0.09
UAGUAGCAAUAUUACGCUAC,-2.41 ± 0.42,
AUUGAGCAAUAUUACGGCGG,-3.01 ± 0.19,-1.05 ± 0.38
GACCAGCAAUAUUACGGAAG,-1.42 ± 0.08,-0.75 ± 0.088
AUGCAGCAAUAUUACGUCAU,-3.12 ± 0.14,-2.26 ± 0.12
CAUAAGCAAUAUUACGGAGU,-3.14 ± 0.15,-2.35 ± 0.2
GGAGAGCAAUAUUACGGUCU,,-2.31 ± 0.48
CACGAGCAAUAUUACGCAAA,-3.96 ± 0.33,-2.08 ± 0.19
UUGUAGCAAUAUUACGGCAU,-0.835 ± 0.096,0.641 ± 0.11
GCGAAGCAAUAUUACGCCGA,,-1.78 ± 0.35
UUUUAGCAAUAUUACGUGUC,-2.93 ± 0.3,-2.26 ± 0.38
CACCAGCAAUAUUACGCCCA,-1.72 ± 0.099,-1.71 ± 0.13
UCAGAGCAAUAUUACGGUGC,-3.88 ± 0.35,-0.485 ± 0.15
UGCGAGCAAUAUUACGAGCA,-1.98 ± 0.18,-2.37 ± 0.22
UAAGAGCAAUAUUACGUUAU,-3.21 ± 0.44,
GAACAGCAAUAUUACGGCUU,-0.492 ± 0.064,0.239 ± 0.087
GCACAGCAAUAUUACGAAAG,-3.79 ± 0.15,-1.91 ± 0.11
UCUUAGCAAUAUUACGGUGG,-1.18 ± 0.13,-1.2 ± 0.16
AGGUAGCAAUAUUACGGACU,0.0184 ± 0.014,0.271 ± 0.033
CAAGAGCAAUAUUACGACUC,-2.72 ± 0.24,-1.84 ± 0.27
AACCAGCAAUAUUACGCCUU,-0.506 ± 0.053,0.096 ± 0.07
GCUCAGCAAUAUUACGCAGA,-3.72 ± 0.2,-2.88 ± 0.2
ACAUAGCAAUAUUACGACUC,-0.657 ± 0.086,-0.29 ± 0.13
CCAUAGCAAUAUUACGAUAA,,-3.15 ± 0.4

Sequence,self-splicing fitness (ln) (30 °C),self-splicing fitness (ln) (37 °C)
GGCCAGCAAUAUUACGUGCA,-0.734 ± 0.078,-0.196 ± 0.074
AUCGAGCAAUAUUACGGCUA,-1.22 ± 0.12,-1.28 ± 0.12
GAUCAGCAAUAUUACGUAGC,-0.999 ± 0.11,-0.402 ± 0.12
UAGAAGCAAUAUUACGCCUC,-2.88 ± 0.5,
AGGUAGCAAUAUUACGCGUA,-1.22 ± 0.017,-0.701 ± 0.034
GUCCAGCAAUAUUACGCGAU,-3.24 ± 0.19,-2.4 ± 0.19
GGUUAGCAAUAUUACGUGCG,-0.0643 ± 0.066,0.0143 ± 0.078
AUAGAGCAAUAUUACGCGAU,-2.28 ± 0.35,-2 ± 0.26
AAUUAGCAAUAUUACGCCUC,-1.22 ± 0.18,-2.47 ± 0.25
ACGAAGCAAUAUUACGCAAG,-1.02 ± 0.14,-0.171 ± 0.18
GGACAGCAAUAUUACGGGGG,-2.84 ± 0.13,-3.18 ± 0.22
GGGUAGCAAUAUUACGAGGA,-2.14 ± 0.22,-2.74 ± 0.3
GUUCAGCAAUAUUACGAUUA,-0.665 ± 0.12,-0.545 ± 0.097
CCACAGCAAUAUUACGACAG,-1.06 ± 0.083,-0.0398 ± 0.088
UAUCAGCAAUAUUACGUUGA,-2.15 ± 0.18,-1.95 ± 0.18
CUUAAGCAAUAUUACGCACC,-1.86 ± 0.45,
AUGAAGCAAUAUUACGAACU,-0.587 ± 0.074,0.606 ± 0.098
GAACAGCAAUAUUACGUCAU,-0.993 ± 0.069,-0.47 ± 0.084
GUAAAGCAAUAUUACGCAAG,-2.89 ± 0.18,-0.51 ± 0.12
GCACAGCAAUAUUACGGUAC,-1.17 ± 0.096,-0.285 ± 0.1
AGUGAGCAAUAUUACGUCCC,0.506 ± 0.48,0.283 ± 0.36
ACACAGCAAUAUUACGGCGG,-0.95 ± 0.069,-0.0948 ± 0.088
AAGCAGCAAUAUUACGCGAA,-1.77 ± 0.083,-1.2 ± 0.1
AAGUAGCAAUAUUACGGUGU,-2.2 ± 0.09,-1.23 ± 0.099
AGUCAGCAAUAUUACGCAUA,-2.09 ± 0.13,-0.502 ± 0.12
CUAGAGCAAUAUUACGAUGU,-3.45 ± 0.3,-2.2 ± 0.31

# Source: the supplement of paper PMC7877785
